B1: Azoarcus group I ribozyme (parent)
chain: GUGCCUUGCGCCGGGAAACCACGCAAGGGAUGGUGUCAAAUUCGGCGAAACCUAAGCGCCCGCCCGGGCGUAUGGCAACGCCGAGCCAAGCUUCGGCGCCUGCGCCGAUGAAGGUGUAGAGACUAGACGGCACCCACCUAAGGCAAACGCUAUGGUGAAGGCAUAGUCCAGGGAGUGGCGAAAGUCACACAAACCGG

In this data set the parent is B1. Nature of the data set: reverse-splicing fitness (ratio to wild type); higher = more active; in vitro selection; Mg2+ level not given. In short, it runs like this: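 An in vitro group I ribozyme library with randomized positions was T7-transcribed and gel-purified. In triplicate, 10 pmol RNA in EPPS pH 7.5 was reacted with 50 pmoles of a 30-nt RNA substrate for 1 h at 37 °C across several added MgCl2 levels (1–48 mM), then stopped with EDTA. Products were reverse transcribed from a substrate-complementary primer, PCR-amplified and sequenced (HiSeq 4000). Fitness is a variant's read proportion after selection over that before, normalised to wild type.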
Consider GUGCCUUGCGCCGGGAAACCACGCAAGGGAUGGUGUCAAAUUCGGCGAAACCUAAGCGCCCGCCCGGGCGUAUGGCAACGCCGAGCCAAGCUUCGGCGCCUGCGCCGAUGAAGGUGUAGUGACUAGACGGCACCCACCUAAGGCGAACGUUAUGGUGAAGGCAUAGUCAAGGGAGCGGCGAAAGUCACACAAACCGG [A120U A145G C150U C169A U176C], for which the reverse-splicing fitness came to 0.00469.
On to GUGCCUUGCGCCGGGAAACCACGCAAGGGAUGGUGUCAAAUUCGGCGAAACCUAAGCGCCCGCCCGGGCGUAUGGCAACGCCGAGCCAAGCUUCGGCGCCUGCGCCGAUGAAGGUGUAGUGACUAGACGGCACCCACCUAAGGCGAACGUUAUGGUGAAGGCAUAGUCAAGGGAGAGGCGAAAGUCACACAAACCGG [A120U A145G C150U C169A U176A], for which the reverse-splicing fitness is 0.00538.
Regarding GUGCCUUGCGCCGGGAAACCACGCAAGGGAUGGUGUCAAAUUCGGCGAAACCUAAGCGCCCGCCCGGGCGUAUGGCAACGCCGAGCCAAGCUUCGGCGCCUGCGCCGAUGAAGGUGUAGUGACUAGACGGCACCCACCUAAGGCGAACGUUAUGGUGAAGGCAUAGUCAAGGGAGGGGCGAAAGUCACACAAACCGG [A120U A145G C150U C169A U176G], the reverse-splicing fitness amounted to 0.00258.
In the case of GUGCCUUGCGCCGGGAAACCACGCAAGGGAUGGUGUCAAAUUCGGCGAAACCUAAGCGCCCGCCCGGGCGUAUGGCAACGCCGAGCCAAGCUUCGGCGCCUGCGCCGAUGAAGGUGUAGUGACUAGACGGCACCCACCUAAGGCGAACGUUAUGGUGAAGGCAUAGUCGAGGGAGAGGCGAAAGUCACACAAACCGG [A120U A145G C150U C169G U176A], the reverse-splicing fitness turned out to be 0.0289.
In the case of GUGCCUUGCGCCGGGAAACCACGCAAGGGAUGGUGUCAAAUUCGGCGAAACCUAAGCGCCCGCCCGGGCGUAUGGCAACGCCGAGCCAAGCUUCGGCGCCUGCGCCGAUGAAGGUGUAGUGACUAGACGGCACCCACCUAAGGCGAACGUUAUGGUGAAGGCAUAGUCGAGGGAGCGGCGAAAGUCACACAAACCGG [A120U A145G C150U C169G U176C] it was 0.063; in that of GUGCCUUGCGCCGGGAAACCACGCAAGGGAUGGUGUCAAAUUCGGCGAAACCUAAGCGCCCGCCCGGGCGUAUGGCAACGCCGAGCCAAGCUUCGGCGCCUGCGCCGAUGAAGGUGUAGUGACUAGACGGCACCCACCUAAGGCGAACGUUAUGGUGAAGGCAUAGUCGAGGGAGGGGCGAAAGUCACACAAACCGG [A120U A145G C150U C169G U176G], 0.00281; in that of GUGCCUUGCGCCGGGAAACCACGCAAGGGAUGGUGUCAAAUUCGGCGAAACCUAAGCGCCCGCCCGGGCGUAUGGCAACGCCGAGCCAAGCUUCGGCGCCUGCGCCGAUGAAGGUGUAGUGACUAGACGGCACCCACCUAAGGCGAACGUUAUGGUGAAGGCAUAGUCCAGGGAGUGGCGAAAGUCACACAAACCGG [A120U A145G C150U], 0.841.
In the case of GUGCCUUGCGCCGGGAAACCACGCAAGGGAUGGUGUCAAAUUCGGCGAAACCUAAGCGCCCGCCCGGGCGUAUGGCAACGCCGAGCCAAGCUUCGGCGCCUGCGCCGAUGAAGGUGUAGUGACUAGACGGCACCCACCUAAGGCGAACGGUAUGGUGAAGGCAUAGUCCAGGGAGAGGCGAAAGUCACACAAACCGG [A120U A145G C150G U176A] it was 0.084; in that of GUGCCUUGCGCCGGGAAACCACGCAAGGGAUGGUGUCAAAUUCGGCGAAACCUAAGCGCCCGCCCGGGCGUAUGGCAACGCCGAGCCAAGCUUCGGCGCCUGCGCCGAUGAAGGUGUAGUGACUAGACGGCACCCACCUAAGGCGAACGGUAUGGUGAAGGCAUAGUCCAGGGAGGGGCGAAAGUCACACAAACCGG [A120U A145G C150G U176G], 0.013.
Next, GUGCCUUGCGCCGGGAAACCACGCAAGGGAUGGUGUCAAAUUCGGCGAAACCUAAGCGCCCGCCCGGGCGUAUGGCAACGCCGAGCCAAGCUUCGGCGCCUGCGCCGAUGAAGGUGUAGUGACUAGACGGCACCCACCUAAGGCGAACGGUAUGGUGAAGGCAUAGUCCAGGGAGCGGCGAAAGUCACACAAACCGG [A120U A145G C150G U176C]: 0.146; GUGCCUUGCGCCGGGAAACCACGCAAGGGAUGGUGUCAAAUUCGGCGAAACCUAAGCGCCCGCCCGGGCGUAUGGCAACGCCGAGCCAAGCUUCGGCGCCUGCGCCGAUGAAGGUGUAGUGACUAGACGGCACCCACCUAAGGCGAACGUUAUGGUGAAGGCAUAGUCAAGGGAGUGGCGAAAGUCACACAAACCGG [A120U A145G C150U C169A]: 0.0163; GUGCCUUGCGCCGGGAAACCACGCAAGGGAUGGUGUCAAAUUCGGCGAAACCUAAGCGCCCGCCCGGGCGUAUGGCAACGCCGAGCCAAGCUUCGGCGCCUGCGCCGAUGAAGGUGUAGUGACUAGACGGCACCCACCUAAGGCGAACGUUAUGGUGAAGGCAUAGUCGAGGGAGUGGCGAAAGUCACACAAACCGG [A120U A145G C150U C169G]: 0.199.
As to GUGCCUUGCGCCGGGAAACCACGCAAGGGAUGGUGUCAAAUUCGGCGAAACCUAAGCGCCCGCCCGGGCGUAUGGCAACGCCGAGCCAAGCUUCGGCGCCUGCGCCGAUGAAGGUGUAGUGACUAGACGGCACCCACCUAAGGCGAACGUUAUGGUGAAGGCAUAGUCUAGGGAGUGGCGAAAGUCACACAAACCGG [A120U A145G C150U C169U], the reverse-splicing fitness was 0.256.
Next, GUGCCUUGCGCCGGGAAACCACGCAAGGGAUGGUGUCAAAUUCGGCGAAACCUAAGCGCCCGCCCGGGCGUAUGGCAACGCCGAGCCAAGCUUCGGCGCCUGCGCCGAUGAAGGUGUAGUGACUAGACGGCACCCACCUAAGGCGAACGUUAUGGUGAAGGCAUAGUCUAGGGAGAGGCGAAAGUCACACAAACCGG [A120U A145G C150U C169U U176A]: 0.0753.
For the variant GUGCCUUGCGCCGGGAAACCACGCAAGGGAUGGUGUCAAAUUCGGCGAAACCUAAGCGCCCGCCCGGGCGUAUGGCAACGCCGAGCCAAGCUUCGGCGCCUGCGCCGAUGAAGGUGUAGUGACUAGACGGCACCCACCUAAGGCGAACGUUAUGGUGAAGGCAUAGUCUAGGGAGCGGCGAAAGUCACACAAACCGG [A120U A145G C150U C169U U176C], the reverse-splicing fitness is 0.108.

Source of the values: the RNAGym collection of RNA variant scans (doi:10.1093/molbev/msab373).
